From patent publication US20090060920A1 (Eli Lilly, published 2009)

B1: 4-28 (cys) ghrelin fragment (peptide)
peptide: FLSPEHQRVQQRKESKKPPAKLQPRC
B2: Fab 5611 (Fab, V domains shown)
VH: QVQLQQSEAELVRPGSSVKISCKASGYAFSNYWMNWVKQRPGQGLEWIGQIYPGDGDTKYNGKFKGKATLTADKSSSSAYMQLSSLTSEDSAVYFCVITTVVGGDSDVWGAGTTVTVSS
VL: DLVLTQSPASLAVSLGQRATISCRASKSVSTSGYSYMHWYQQKPGQPPKLLIYLASNLESGVPARFSGSGSGTDFTLNIHPVEEEDAATYYCQHSRELPYTFGGGTKLEIKR
notes: Murine Fab from an Omniclonal library of immunised C57Bl6 mice
B3: E8 mouse IgG1 monoclonal antibody (antibody, V domains shown)
VH: B2 VH
VL: B2 VL
notes: domain: constant domain of mouse IgG1; also called E8 antibody; E8 mouse IgG1 mAb
B4: 9-28 ghrelin fragment (peptide)
peptide: HQRVQQRKESKKPPAKLQPR

Key:
Fab 5611 = target: B2; assay: competition ELISA: peptide preincubated with 10 nM Fab 5611, mixture added to a plate coated with desacyl ghrelin, bound Fab detected with anti-mouse kappa-HRP, A490
Protocol: (§1) (450-655061) by adding 60 uL of a 0.4 μg/ml (in H₂O) solution to each well. The assay plate is placed in a dry 37° C. incubator overnight. The next day, the assay plate is washed (wash buffer: 0.1% Tween 20, Tris-buffered saline (TBS)), and blocked with casein/PBS (Pierce 37528).
(§2) “2-28 acyl ghrelin” and “3-28 acyl ghrelin” in FIG. 1 refer to acyl ghrelins (SEQ ID NO: 17) missing the first one or two amino acids at the N-terminal end of the molecule, respectively. In FIG. 2, “1-8 (cys) desacyl” refers to a desacyl ghrelin fragment consisting of amino acids 1-8 of SEQ ID NO: 17, with an additional cysteine residue at the C-terminus. “4-28 (cys)” refers to a ghrelin fragment consisting of amino acids 4-28, also with an additional cysteine residue at the C-terminus. “9-28” refers to a ghrelin fragment consisting of amino acids 9-28 of SEQ ID NO: 17. Dilutions of the ghrelin, ghrelin analogs, and Fab are made in casein/PBS. These mixtures are incubated in a separate plate for 1 hour at room temperature.
(§3) The blocking solution is removed from the assay plate and 50 uL of the ghrelin/Fab mixture are added to the assay plate in duplicate. This is allowed to sit for 30 minutes at room temperature. […] The reaction is stopped with 100 uL of 1 N HCl, and the absorbance of the wells is read at 490 nm (Molecular Device SpectraMax250).

desacyl human ghrelin [1] = target: T1, desacyl human ghrelin (human); assay: SPR (BIAcore 2000), Fab captured by goat anti-mouse kappa, ghrelin in solution, 25 C
T1 construct: also called desacyl ghrelin; 1-28 desacyl ghrelin
Protocol: (§4) Except where noted, all reagents and materials are purchased from BIAcore® AB (Upsala, Sweden). All measurements are performed at 25° C. Samples containing rat or human desacyl ghrelin are dissolved in HBS-EP buffer (150 mM sodium chloride, 3 mM EDTA, 0.005% (w/v) surfactant P-20, and 10 mM HEPES, pH 7.4). A capture antibody, goat anti-mouse Kappa (Southern Biotechnology, Inc), is immobilized onto flow cells using amine-coupling chemistry. Flow cells (1-4) are activated for 7 minutes with a 1:1 mixture of 0.1 M N-hydroxysuccinimide and 0.1 M 3-(N,N-dimethylamino)propyl-N-ethylcarbodiimide at a flow rate of 10 μl/min. Goat anti-mouse Kappa (30 μg/mL in 10 mM sodium acetate, pH 4.5) is manually injected over all 4 flow cells at a flow rate of 10 μL/min. The surface density is monitored and additional goat anti-mouse Kappa is injected if needed to individual cells until all flow cells reach a surface density of 4500-5000 response units (RU). Surfaces are blocked with a 7 minute injection of 1 M ethanolamine-HCl, pH 8.5 (10 μL/min). […]
(§5) Collection of kinetic binding data is performed at maximum flow rate (100 μL/min) and a low surface density to minimize mass transport effects. […] Signal is monitored as flow cell 2 minus flow cell 1, flow cell 3 minus flow cell 1 and flow cell 4 minus flow cell 1. […]

[2] = target: B1; assay: competition ELISA on coated desacyl ghrelin, Fab at 10 nM
Protocol: as §1, §2, §3

9-28 ghrelin fragment = target: B4; assay: as above
Protocol: as §1, §2, §3

desacyl human ghrelin [3] = target: T1, desacyl human ghrelin; assay: SPR (BIAcore 2000), antibody captured by goat anti-mouse kappa, ghrelin in solution, 25 C
Protocol: as §4, §5

Binder: B1
- binding result (Fab 5611): no binding (tested: 1000 nM)

Binder: B2
- Kd (desacyl human ghrelin [1]): 0.138 nM
- binding result [2]: no binding (tested: at the concentrations tested)
- binding result (9-28 ghrelin fragment): no binding (tested: at the concentrations tested)

Binder: B3
- Kd (desacyl human ghrelin [3]): 0.226 nM

Binder: B4
- binding result (Fab 5611): no binding (tested: 1000 nM)
